Measurements published in the Human Domainome abundance scans (Beltran et al. 2025).
± gives the uncertainty stated by the source.

B1: Transcription elongation factor A N-terminal and central domain-containing protein, residues 30 to 77; numbered along this chain, Q8N8B7 (parent)
chain: LTELETIYVTKEHLQETDVVRAVYRVLKNCPSVALKKKAKCLLSKWKA

Variants of: B1
Experiment: abundance fitness (aPCA) (normalised: wild type 0, dead -1); higher = more abundant; growth selection in yeast, the domain comes from the species named
Conditions: Homo sapiens

Abundance fitness, by site and new letter:
S32: I 0.27 ± 0.13; D -0.389 ± 0.27; H 0.131 ± 0.24; R 0.022 ± 0.072; C 0.367 ± 0.12; F 0.211 ± 0.13; K -0.155 ± 0.078
V20: C -0.034 ± 0.11; T -0.414 ± 0.24; N -0.741 ± 0.39; W 0.07 ± 0.1; A 0.015 ± 0.1; Q -0.633 ± 0.23; Y -0.301 ± 0.14; S -0.594 ± 0.13; G -0.109 ± 0.086
A22: L -0.119 ± 0.074; W 0.256 ± 0.076; N -0.099 ± 0.13; K 0.082 ± 0.11; C -0.206 ± 0.095; I -0.419 ± 0.2
H13: M -0.133 ± 0.084; C -0.224 ± 0.079; S 0.02 ± 0.063; L -0.842 ± 0.078; R -0.126 ± 0.066; Q -0.078 ± 0.086; G -0.232 ± 0.072
V19: T -0.347 ± 0.12; R 0.037 ± 0.09; S -0.481 ± 0.1; E -0.618 ± 0.2; Q -0.464 ± 0.21; H -0.454 ± 0.18; P -0.261 ± 0.13; G -0.094 ± 0.082; Y -0.595 ± 0.21
K37: E -0.248 ± 0.1; G -0.578 ± 0.081; N -0.155 ± 0.17; C -0.895 ± 0.12
E16: P 0.009 ± 0.21; C -0.03 ± 0.13; F 0.028 ± 0.14; I -0.28 ± 0.14; G -0.008 ± 0.084
E3: L -0.07 ± 0.095; Y -0.207 ± 0.16; G -0.416 ± 0.074; H -0.696 ± 0.43; Q -0.222 ± 0.17; M -0.045 ± 0.16; C 0.159 ± 0.11; V -0.102 ± 0.081; F 0.477 ± 0.16
K28: H -0.435 ± 0.13; M -0.749 ± 0.13; L -0.237 ± 0.077; Q -0.734 ± 0.16; V -0.142 ± 0.073; S -0.368 ± 0.1; E -0.679 ± 0.13; P -0.379 ± 0.13; T -0.169 ± 0.093; R -0.033 ± 0.074
E12: R -0.24 ± 0.079; Q -0.278 ± 0.13; P -0.25 ± 0.17; A -0.492 ± 0.099; D -0.184 ± 0.19; M -0.538 ± 0.12; N -0.34 ± 0.17; C -0.79 ± 0.17; T -0.068 ± 0.1
V9: D 0.276 ± 0.11; W -0.277 ± 0.09; P -0.027 ± 0.13; C -0.172 ± 0.1; M -0.098 ± 0.12
D18: H 0.049 ± 0.14; V -0.094 ± 0.083; A 0.098 ± 0.1; Q -0.07 ± 0.12; T 0.158 ± 0.1; R 0.24 ± 0.084
K47: N -0.625 ± 0.22; V 0.019 ± 0.099; R -0.431 ± 0.11; W 0.025 ± 0.13; I -0.47 ± 0.23; T -0.351 ± 0.22
V26: T 0.279 ± 0.12; N -0.152 ± 0.12; I -0.105 ± 0.12; Y 0.491 ± 0.17; C 0.15 ± 0.12; S -0.206 ± 0.089; F 0.126 ± 0.11; G -0.095 ± 0.078
L14: N 0.235 ± 0.12; V 0.172 ± 0.065; R 0.21 ± 0.057; A 0.241 ± 0.064; T 0.328 ± 0.087; H 0.294 ± 0.1; Q 0.247 ± 0.1; S 0.296 ± 0.066; C 0.061 ± 0.097
T6: K -0.059 ± 0.096; Y -0.513 ± 0.32; S 0.12 ± 0.082; N -0.514 ± 0.21; I -0.891 ± 0.27; F -0.23 ± 0.12; M -0.107 ± 0.11; C -0.262 ± 0.1; R -0.074 ± 0.068
W46: Y -0.504 ± 0.18; V -0.035 ± 0.094; L 0.022 ± 0.079; G -1.07 ± 0.14; E -1.03 ± 0.22
L4: N 0.469 ± 0.1; I -0.174 ± 0.14; K 0.272 ± 0.094; A 0.17 ± 0.083; V -0.23 ± 0.072; T 0.269 ± 0.1; S 0.216 ± 0.071; F -0.044 ± 0.1; M 0.022 ± 0.095
K38: W -0.252 ± 0.12; R -0.061 ± 0.077; L -0.024 ± 0.1; H -0.529 ± 0.14; E -0.933 ± 0.2; D -0.885 ± 0.35
R25: D -0.443 ± 0.15; A -0.326 ± 0.087; C -0.92 ± 0.25; L -0.71 ± 0.096; P -0.812 ± 0.18; V -0.849 ± 0.13; E -0.743 ± 0.15; W -0.837 ± 0.19
C41: D -0.182 ± 0.18; Y -0.558 ± 0.16; I -0.202 ± 0.47; F 0.005 ± 0.22; V 0.042 ± 0.087; H 0.239 ± 0.12; S 0.093 ± 0.11; R 0.167 ± 0.09
R21: N -0.113 ± 0.15; C -0.468 ± 0.13; M -0.333 ± 0.41; A -0.457 ± 0.13; Y -0.601 ± 0.28; E -0.647 ± 0.3; T -0.413 ± 0.15; H -0.067 ± 0.16; K -0.246 ± 0.16; L -0.88 ± 0.12
A39: D -0.826 ± 0.19; Y -0.452 ± 0.17; K -0.883 ± 0.35; M -0.016 ± 0.12; V 0.096 ± 0.078; E -0.972 ± 0.16; S -0.745 ± 0.13; H -0.553 ± 0.27; T -0.512 ± 0.14; C 0.072 ± 0.12; R -0.968 ± 0.093
L42: E -0.993 ± 0.2; D -0.894 ± 0.19; Y -0.737 ± 0.28; Q -0.791 ± 0.25; V -0.354 ± 0.086; G -1.05 ± 0.12; I -0.283 ± 0.18
L27: N -0.846 ± 0.26; V -0.445 ± 0.091; R -0.848 ± 0.1; K -0.845 ± 0.17; D -0.901 ± 0.23; W -0.031 ± 0.1; S -0.966 ± 0.15; T -0.883 ± 0.14; P -0.444 ± 0.18; I -0.053 ± 0.14
T17: S -0.103 ± 0.1; D -0.368 ± 0.17; V -0.526 ± 0.098; N 0.149 ± 0.13; Q -0.649 ± 0.18; Y -0.784 ± 0.27; R -0.099 ± 0.072
C30: A -0.338 ± 0.11; M 0.035 ± 0.12; F 0.121 ± 0.14; S -0.514 ± 0.087; W 0.119 ± 0.075
T2: Y -0.078 ± 0.18; S 0.198 ± 0.11; G -0.078 ± 0.12; I -0.369 ± 0.13; N 0.036 ± 0.25; A -0.385 ± 0.11
N29: M 0.052 ± 0.1; I -0.167 ± 0.13; C 0 ± 0.11; G -0.282 ± 0.074; S -0.144 ± 0.076
V33: C 0.041 ± 0.12; M -0.027 ± 0.1; W -0.096 ± 0.08; F 0.427 ± 0.33; N -0.279 ± 0.2; D -0.086 ± 0.11; Y -0.327 ± 0.16; T -0.146 ± 0.1
S44: K -0.312 ± 0.21; Y -0.398 ± 0.21; A -0.232 ± 0.11; G -0.141 ± 0.1; V -0.48 ± 0.11; E -0.262 ± 0.17
T10: C -0.566 ± 0.18; R -0.041 ± 0.069; K -0.198 ± 0.098; H -0.23 ± 0.36; Y -0.771 ± 0.22; I -0.657 ± 0.43; M -0.143 ± 0.12; G -0.164 ± 0.067; Q 0.117 ± 0.11; A -0.017 ± 0.079
A34: Y -0.174 ± 0.24; K 0.148 ± 0.1; P -0.378 ± 0.12; T -0.161 ± 0.12; W -0.176 ± 0.12; Q -0.464 ± 0.15; E -0.308 ± 0.1
K11: Y -0.599 ± 0.15; Q -0.184 ± 0.13; F -0.747 ± 0.22; C -0.337 ± 0.11; L -0.014 ± 0.079; A 0.095 ± 0.1; E 0.145 ± 0.089; S -0.016 ± 0.086; R -0.348 ± 0.075; N -0.627 ± 0.24; D -0.021 ± 0.12
V23: A -0.453 ± 0.091; R -0.426 ± 0.073; H -0.81 ± 0.21; S -0.54 ± 0.11; W -0.009 ± 0.1
L43: Y -0.256 ± 0.22; M -0.138 ± 0.15; T -1.05 ± 0.21; P -0.789 ± 0.29; D -0.829 ± 0.19; R -0.889 ± 0.11; C -0.647 ± 0.21; W 0.127 ± 0.087; Q -0.527 ± 0.14; K -1.04 ± 0.24; V -0.272 ± 0.084
K45: P -0.667 ± 0.42; G -0.894 ± 0.12; C -0.352 ± 0.14; M -0.63 ± 0.18; T -0.656 ± 0.18
L1: Y -0.521 ± 0.21; C -0.162 ± 0.15; Q 0.202 ± 0.19; W -0.554 ± 0.18; V -0.379 ± 0.14; S -0.501 ± 0.31; G 0.363 ± 0.23
K36: C -0.225 ± 0.097; W 0.113 ± 0.094; S -0.609 ± 0.097; P -0.211 ± 0.13; V 0.066 ± 0.075
Y24: I 0.105 ± 0.11; C -0.003 ± 0.1; A 0.019 ± 0.078; K 0.219 ± 0.095; W 0.406 ± 0.087; P -0.72 ± 0.17; Q -0.223 ± 0.11; D -0.217 ± 0.099
P31: N -0.016 ± 0.1; I 0.371 ± 0.085; F 0.511 ± 0.092; S 0.263 ± 0.071; Y -0.021 ± 0.092; H -0.349 ± 0.11
Q15: M -0.452 ± 0.13; A -0.088 ± 0.081; N -0.388 ± 0.16; L -0.352 ± 0.084; T -0.213 ± 0.12; V -0.527 ± 0.095; K 0.209 ± 0.093; D -0.27 ± 0.13; R 0.093 ± 0.071; I -0.46 ± 0.15
I7: W -0.631 ± 0.12; F -0.323 ± 0.17; Q 0.015 ± 0.11; T 0.192 ± 0.11; G 0.224 ± 0.065
A48: P -0.565 ± 0.22; L -1.22 ± 0.37
E5: L -0.28 ± 0.08; I -0.48 ± 0.12; M -0.643 ± 0.11; V -0.446 ± 0.1; P -0.663 ± 0.15; T -1.17 ± 0.23; K -0.393 ± 0.13; S -0.809 ± 0.12; Y -0.604 ± 0.25
Y8: A 0.274 ± 0.17; G 0.156 ± 0.094; S -0.388 ± 0.28; V -0.008 ± 0.16
